B1: Hairpin Ribozyme (parent)
chain: GUCCUCUUUCACGUGCGCGUGAAAGAGAGAAGUGAACCAGAGAAACACACGUUGUGGUAUAUUACCUGGUA

Variants of: B1
Assay: self-cleavage, relative activity (ratio to wild type); higher = more cleavage; co-transcriptional

Variant	self-cleavage
G15U A30U	0.146
C16U C50A	0.295
C16U C50G	0.339
G15U C37G	0.339
G15U C37A	0.386
G15U C37U	0.784
G15U A64G	0.657
G15U A64C	0.16
C16U A41G	0.809
C16U A41C	1.4
G17C A26C	0.655
C16A C50G	0.24
C16A G19A	0.991
C16U G32A	0.216
G17A U62A	0.159
C16U C37U	0.508
C16U C37A	0.361
G15C U20A	0.963
G17A G32A	0.105
C16U C65G	0.26
C16U C65U	0.443
G15C C65U	0.352
C16A C18G	0.841
C16A C18U	0.98

Variant	self-cleavage
G15C G42U	0.19
C16U U63C	0.165
C16U U67C	0.283
C16U U67G	0.367
G15U A49U	0.0651
G15U A49C	0.0683
C16G U60G	0.511
G15U G27C	0.278
G15U G27A	0.432
G15C G17U	0.959
G17A U67C	0.163
C16U U62A	0.18
G15U A61C	0.261
C16U C46G	0.141
C16U C46A	0.177
G15U G19U	0.853
C16A A24U	0.632
C16U G57C	0.113
C16G A23U	0.718
C16G C18U	0.823
C16G C18G	0.863
C16G U53G	0.713
C16G A49G	0.544
C16U A47U	0.0914

Variant	self-cleavage
C16A U52G	0.879
C16A U33G	0.317
C16U A39G	0.326
C16U A36C	0.789
C16U A36U	0.804
C16G C66G	0.0535
C16A A47C	0.365
C16A A47U	0.0731
G17A A30U	0.0442
G17A A30G	0.0738
C16A G21U	0.72
C16G G19C	0.618
C16G G19U	0.719
C16U G25U	0.873
C16A G51A	0.943
C16A G51C	0.714
C16A A31C	0.0433
G17A C46A	0.191
C16A A43U	0.0656
C16A G27U	0.202
C16A G27C	0.218
G15U G25A	0.703
G17C A22C	0.75
C16G G21U	0.442

Variant	self-cleavage
C16G G40A	0.198
C16A A44G	0.153
G17A C48A	0.145
G17A C48G	0.102
C16U A49C	0.204
C16A A59G	0.085
G17A G54A	0.543
G15U G17C	0.881
C16U A71U	0.859
G15C A59C	0.146
G15C A59U	0.224
G17A G69A	0.306
C16G G57U	0.119
G15U C18G	1.02
C16A A30G	0.11
G15U G57A	0.153
G15U G57U	0.296
C16G A61U	0.253
C16G A61G	0.151
C16A C46U	0.0901
G15C G29U	0.174
G15C G29C	0.116
G15U A47G	0.116
C16A C48G	0.155

Variant	self-cleavage
G15C A71C	1.29
G17A C37G	0.332
G15U C16A	1.11
C16G C50U	0.306
C16G C50A	0.198
C16U G54A	0.518
G17A G40A	0.185
G17A U60A	1.02
G15C U60A	0.709
C16G A31U	0.226
C16G A31C	0.0855
G17A C38G	0.198
G15U U55A	0.304
G15C C37G	0.298
C16A G69U	0.334
G17A A35U	0.778
G15U A39G	0.245
C16U A64C	0.133
G17A A43C	0.0401
C16A A61C	0.359
C16A A61G	0.203
G15U C46U	0.187
G15U U70A	0.96
C16U U55G	0.219

Variant	self-cleavage
C16U U55A	0.357
C16A G57A	0.129
G15U A28U	0.765
G15U U58G	0.711
G15U G51C	1.08
G15U G51A	0.948
G15U G51U	1.22
C16G U55A	0.265
C16U A30U	0.2
G17C A30C	0.099
C16G U67A	0.097
G17A U20G	0.492
G17A U20A	0.759
C16G C38U	0.167
C16U G21A	0.843
C16A G40U	0.147
C16G U58A	0.488
C16U A23G	1
G15U G69A	0.448
G15U G69C	0.434
G15C G19A	0.913
G15U U53A	1.16
G15U U53C	1.04
G15U G32C	0.122

Variant	self-cleavage
G17A G57C	0.146
G17A G56A	0.142
G17A G56U	0.137
G17A G56C	0.185
C16U U52A	1.01
C16U U52C	0.7
G17A G29U	0.113
G17A G29A	0.0893
C16A A45G	0.115
C16A A45C	0.123
G17C A36G	0.48
G17C A36C	0.532
G17A A41C	1.38
G17A A41U	1.38
G15U C48U	0.149
G15U C48G	0.213
G15U C48A	0.226
G17A	1.01
G17C	0.751
C16G A22C	0.604
C16G A22U	0.691
C16G A59U	0.145
C16U G40U	0.146
C16G A30U	0.0915

Variant	self-cleavage
C16A C38A	0.203
C16U A22C	0.899
G15C C48A	0.121
C16A G29U	0.128
C16A G29A	0.144
C16A G29C	0.0987
C16A G17U	0.944
G15C U62C	0.0966
C16U G29A	0.146
C16U G19A	1.03
C16A A26U	0.607
C16U A24G	0.997
C16U A24U	1.02
G15C G56C	0.113
G15C G56U	0.113
G17A G51C	0.656
C16A A41C	1.18
G15U A59G	0.161
G17A A47G	0.129
C16G A64G	0.511
C16G A64U	0.172
C16G A64C	0.161
C16G U33A	0.105
C16G U33G	0.12

Variant	self-cleavage
C16U U60A	1.01
C16U U58A	0.731
C16U U58C	1.1
C16A U55A	0.221
C16A U55G	0.232
C16A G25A	0.561
C16G G68C	0.153
G15C U58G	0.493
C16A A64C	0.133
C16U A43C	0.174
G15C C38A	0.22
G15C C38G	0.127
C16A G32A	0.121
C16A G32U	0.226
C16A G32C	0.0596
C16G G54U	0.493
C16G G54A	0.485
C16A G56U	0.151
C16U A26G	0.959
G15U U20C	1
G15U G29A	0.0502
G17A U63G	0.29
G17A U63C	0.181
G17A A59U	0.116

Variant	self-cleavage
G17A A59C	0.196
C16G C65G	0.163
C16A A36U	0.554
C16A A36G	1.1
C16A U62C	0.276
C16A U62G	0.154
C16A U20G	0.812
C16A U20A	0.743
C16G G25A	0.612
G17A G42C	0.367
C16U G51U	1.03
C16U G51C	1.08
G15U G34U	1.46
C16U C66A	0.194
G17A A39C	0.51
G15C G57C	0.137
G15C G51U	0.91
C16A A39C	0.484
C16A U67G	0.182
C16G C37G	0.386
G15U U63A	0.164
G15C G25A	0.607
G15C G25U	0.637
C16A G42A	0.366

Variant	self-cleavage
G15U U33C	0.178
C16A C66U	0.416
G15U C65G	0.244
G15C U63A	0.188
G17A C18U	1.12
C16G G69C	0.197
G15C C16U	1.29
C16A U63C	0.0962
G17A U55A	0.0892
G17A U55C	0.354
C16G G42A	0.251
C16G G42U	0.247
G17A U33C	0.113
G17A A24U	1.03
G17A A24C	0.894
C16U C48A	0.114
G15U G40U	0.206
G15U G40A	0.335
G15U A43U	0.104
G15U A43G	0.151
G15C U53A	0.792
G17A C50G	0.327
G17A A28G	1.14
G15C A64C	0.162

Variant	self-cleavage
G15C A64G	0.532
G17A G21C	0.834
C16U G27U	0.198
G15U G68U	0.329
G15U G68A	0.387
G15C G68C	0.165
C16U U33A	0.0953
C16U U33C	0.27
G15U A71U	0.923
G15U A71G	1.12
C16A A22C	0.713
C16G G51C	0.564
C16G G51U	0.803
C16A U58G	0.736
G17A A45C	0.0797
G15U C66G	0.183
C16U C18G	0.873
C16U C18A	0.985
C16G A47G	0.187
C16U U70C	0.949
C16U U70A	1.03
C16A A23G	0.783
C16G U52A	1.09
C16G U20G	0.661

Variant	self-cleavage
C16G U20A	1.02
C16G G32C	0.091
C16A U70A	0.83
C16A U70C	0.978
C16G A71G	1.05
C16G A71C	1.35
G15U C50A	0.274
G15U G56U	0.0866
G15U G42A	0.207
C16G A45U	0.229
C16G A45C	0.152
C16A U53C	0.753
C16U A28C	0.565
C16G A44G	0.0556
G17A A71C	1.37
G15C G34C	0.578
G15C G34A	1.02
G15C A61G	0.173
G15C A61U	0.181
G17A A49U	0.141
C16U G17C	0.985
C16U G17U	0.92
G15U U52C	0.911
C16A G34A	1.35

Variant	self-cleavage
C16A G34U	1.47
G15C C18G	0.863
G15C C18U	0.922
C16G A35U	0.693
C16G A35C	0.659
G15C C46U	0.151
C16G A36U	0.553
G15C C66G	0.0808
G17A U70G	0.918
C16U A61G	0.148
G15U A24G	1.12
G15U A24C	1.08
C16G G56U	0.187
C16A C37G	0.324
C16A C37A	0.377
C16G A43G	0.0515
C16G A43C	0.156
G15U U67C	0.267
C16U G34C	1.53
G15C U33A	0.0629
G15U A26U	0.831
G15U A26C	0.96

From the RNAGym collection of RNA variant scans (doi:10.7554/elife.80360)
